The target in experiment [1] is HLA-A2 (HLA-A*0201) class I molecule without a defined test peptide (human). The experiment is described as follows: cell-based or functional assay.
Experiment [2] concerns the target GVL peptide-HLA-A2 (hCG beta 47-55 peptide … in HLA-A2 with beta-2 microglobulin) (human). The experiment is described as follows: flow cytometry, T2 cells pulsed with 50 to 0.1 µg/ml GVL peptide. A general note: In flow cytometry, cells or beads pass a laser one at a time.
The target is the same in experiment [3]. The experiment can be described thus: cell-based or functional assay.
Experiment [4] has as its target TMT peptide-HLA-A2 (hCG beta 40-48 peptide … in HLA-A2 with beta-2 microglobulin) (human). The experiment is described as follows: cell-based or functional assay.
The target of experiment [5] is HLA-A2 (HLA-A*0201) class I molecule without a defined test peptide (human). The experiment can be described thus: flow cytometry, unpulsed T2 cells, 1 µg per stain.
In experiment [6] the target is GVL peptide-HLA-A2 (hCG beta 47-55 peptide … in HLA-A2 with beta-2 microglobulin) (human). The experiment can be described thus: flow cytometry, GVL-pulsed T2 cells, 1 µg antibody.
The target is the same in experiment [7]. The experiment is described as follows: flow cytometry, GVL-pulsed T2 cells, 1 µg per stain.
In experiment [8] the target is TMT peptide-HLA-A2 (hCG beta 40-48 peptide … in HLA-A2 with beta-2 microglobulin) (human). The experiment can be described thus: flow cytometry, TMT-pulsed T2 cells, 1 µg per stain.
Experiment [9] deals with VLQ peptide-HLA-A2 (hCG beta peptide … in HLA-A2 with beta-2 microglobulin) (human). The experiment is described as follows: flow cytometry, VLQ-pulsed T2 cells, 1 µg per stain.
Experiment [10] deals with GVL peptide-HLA-A2 (hCG beta 47-55 peptide … in HLA-A2 with beta-2 microglobulin) (human). The experiment can be described thus: flow cytometry, GVL-pulsed T2 cells, 0.01 µg antibody.

The values below come from patent US20160017031A1.

In experiment [1], BB7.2 monoclonal antibody (anti-HLA-A2) gave a CDC specific lysis of GVL-pulsed T2 cells of 53 to 70%. This substance registered an MFI in experiment [2] of 250 to 350 MFI.
In [3], RL4B (antibody) returned an ADCC of MDA-231 cells, human PBMC, E:T 20:1 of 6.4 to 13.4%. In [3], this substance displayed an ADCC of MDA-MB-231 cells, human PBMC, E:T 30:1, 10 µg/ml 3.2G1 of 6.8 to 9.6%. For the same substance, the ADCC of MDA-MB-231 cells, human PBMC, E:T 30:1, 10 µg/ml 3.2G1 (average) in experiment [3] is 8.7%. In [3], the CDC specific lysis of T2 cells pulsed with 50 to 0.1 µg/ml GVL peptide is 6 to 73%. Further, in experiment [3], the GVL peptide concentration giving half-maximal CDC lysis is 6 µg/mL. Further, in experiment [4], the complement-dependent cytolysis (CDC) of TMT-pulsed T2 cells was found to be 2%. Further, the MFI was found to be 9 MFI in experiment [5]; 388 MFI in [6]; 141 MFI in experiment [7]; 7.5 MFI in [8]; 7.3 MFI in experiment [9]; 14.3 MFI in experiment [10]. This substance yielded an MFI in [2] of 10 to 150 MFI.
